Experimental data taken from paper PMC6954729, “Type I fatty acid synthase trapped in the octanoyl‐bound state” (Protein Science : A Publication of the Protein Society, 2020).

Target: the molecule itself
Test: crystal structure; crystals grown in 0.2 M potassium-sodium tartrate, 25% (w/v) PEG 3350 at 20°C, soaked with octanoyl-CoA for up to 2 min; 2.7 Å; four chains (A-D) in the asymmetric unit

B1: murine KS-MAT didomain (condensing part of murine Type I fatty acid synthase), octanoyl-bound (domain or fragment)
chain: EEVVIAGMSGKLPESENLQEFWANLIGGVDMVTDDDRRWKAGLYGLPKRSGKLKDLSKFDASFFGVHPKQAHTMDPQLRLLLEVSYEAIVDGGINPASLRGTNTGVWVGVSGSEASEALSRDPETLLGYSMVGCQRAMMANRLSFFFDFKGPSIALDTACSSSLLALQNAYQAIRSGECPAALVGGINLLLKPNTSVQFMKLGMLSPDGTCRSFDDSGSGYCRSEAVVAVLLTKKSLARRVYATILNAGTNTDGSKEQGVTFPSGEVQEQLICSLYQPAGLAPESLEYIEAHGTGTKVGDPQELNGITRSLCAFRQAPLLIGSTKSNMGHPEPASGLAALTKVLLSLEHGVWAPNLHFHNPNPEIPALLDGRLQVVDRPLPVRGGNVGINSFGFGGSNVHVILQPNTRQAPAPTAHAALPHLLHASGRTLEAVQDLLEQGRQHSQDLAFVSMLNDIAATPTAAMPFRGYTVLGVEGRVQEVQQVSTNKRPLWFICSGMGTQWRGMGLSLMRLDSFRESILRSDEAVKPLGVKVSDLLLSTDERTFDDIVHAFVSLTAIQIALIDLLTSVGLKPDGIIGHSLGEVACGYADGCLSQREAVLAAYWRGQCIKDAHLPPGSMAAVGLSWEECKQRCPAGVVPACHNSEDTVTISGPQAAVNEFVEQLKQEGVFAKEVRTGGLAFHSYFMEGIAPTLLQALKKVIREPRPRSARWLSTSIPEAQWQSSLARTSSAEYNVNNLVSPVLFQEALWHIPEHAVVLEIAPHALLQAVLKRGVKSSCTIIPLMKRDHKDNLEFFLTNLGKVHLTGINVNPNALFPPVEFPAPRGTPLISPHIKWDHSQTWDVPVAEDFPN
modifications: octanoyl covalently bound to C161 (KS, all four chains of the asymmetric unit); octanoyl covalently bound to S581 (MAT, chain D only)
notes: Type I fatty acid synthase (FAS), murine; condensing part with KS, linker domain (LD) and MAT; residues 1-407 and 824-852 (KS) and 488-806 (MAT) are named in superpositions; Wild type; also called murine FAS KS-MAT didomain; Wildtype soaked with octanoyl-CoA; source: E. coli BL21 Gold (DE3), purified (Ni-NTA, Strep-Tactin, SEC)
- binding result: binds
